The text below walks through data of US20250171542A1 (ADEPT THERAPEUTICS, published 2025).

Test [1] deals with T1, human PD-L1-His (Sino Biological, Cat #10084-H08H) (human, UniProt Q9NZQ7 19-238).
T1 construct: Bought protein; also called human PD-L1 ECD-His; recombinant human PD-L1-His protein; not shown: His tag
As to the kind of experiment: ELISA, coated human PD-L1-His. The essentials:
(§1)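 Plates coated overnight at 4 °C with 0.5 μg/ml His-tagged human or cynomolgus PD-L1, then BSA-blocked. Serially diluted antibodies bound 2 h at RT, detected with HRP secondary (1 h) and TMB, read at 450 nm after acid stop; anti-HEL isotype as negative control.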

The target of test [2] is T2, PD-L2 (Sino Biological, Cat #10292-H08H) (UniProt Q9BQ51 20-219).
T2 sequence (looked up): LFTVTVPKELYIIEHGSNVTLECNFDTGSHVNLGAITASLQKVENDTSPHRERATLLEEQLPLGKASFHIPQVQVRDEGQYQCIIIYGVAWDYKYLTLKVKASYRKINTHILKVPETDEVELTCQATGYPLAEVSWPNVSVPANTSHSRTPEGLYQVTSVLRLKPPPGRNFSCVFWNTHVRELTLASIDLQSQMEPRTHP
The experiment in a line: ELISA. In general terms: In an ELISA, binding on a coated surface is turned into a signal by an enzyme label.

The target in test [3] is T3, BH-H2 (Sino Biological, Cat #11559-H08H) (UniProt O75144 19-258).
T3 sequence (looked up): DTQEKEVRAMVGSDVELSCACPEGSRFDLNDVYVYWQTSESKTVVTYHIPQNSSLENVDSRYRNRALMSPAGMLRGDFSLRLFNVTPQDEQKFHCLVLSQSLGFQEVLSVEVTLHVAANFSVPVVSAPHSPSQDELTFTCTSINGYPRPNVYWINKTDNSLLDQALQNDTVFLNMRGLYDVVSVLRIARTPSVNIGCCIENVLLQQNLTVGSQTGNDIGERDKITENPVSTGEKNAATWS
The experiment in a line: ELISA.

For test [4], the target named is T4, canine PD-L1 (Acro Biosystems, Cat #PDL-C52H4) (canine, UniProt E2RKZ5 19-236).
T4 construct: not shown: The vendor's tag, probably a polyhistidine tag
T4 sequence: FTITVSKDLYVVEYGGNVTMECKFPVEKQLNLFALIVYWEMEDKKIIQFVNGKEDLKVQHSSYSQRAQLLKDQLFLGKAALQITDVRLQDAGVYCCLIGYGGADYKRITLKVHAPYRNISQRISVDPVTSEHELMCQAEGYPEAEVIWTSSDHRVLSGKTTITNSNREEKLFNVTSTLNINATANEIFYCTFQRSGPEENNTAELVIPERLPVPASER
The experiment in a line: ELISA.

Test [5] concerns the target T5, rat PD-L1 (Sino Biological, Cat #80450-R08H) (rat, UniProt D4AE25 19-239).
T5 construct: not shown: The vendor's polyhistidine tag
The experiment in a line: ELISA.

Test [6] has as its target T6, human PD-L1 expressed on cell surface (human, UniProt Q9NZQ7 19-290).
T6 construct: also called cell surface PD-L1
The experiment in a line: flow cytometry, MDA-MB-231-GFP cells. A general note: In flow cytometry, cells or beads pass a laser one at a time.

Test [7] addresses T6, human PD-L1 expressed on cell surface. As to the kind of experiment: cell-based or functional assay.
The target in test [8] is T7, cynomolgus PD-L1-His (Sino Biological, Cat. 90251-C08H) (cynomolgus, UniProt Q9NZQ7 19-238 (human entry)).
T7 construct: Bought protein; also called Cyno PD-L1; Cynomolgus PD-L1 ECD-His; not shown: His tag
T7 sequence (Q9NZQ7 other isoform, or with tags, fused parts or gaps C08H C08H limits assumed): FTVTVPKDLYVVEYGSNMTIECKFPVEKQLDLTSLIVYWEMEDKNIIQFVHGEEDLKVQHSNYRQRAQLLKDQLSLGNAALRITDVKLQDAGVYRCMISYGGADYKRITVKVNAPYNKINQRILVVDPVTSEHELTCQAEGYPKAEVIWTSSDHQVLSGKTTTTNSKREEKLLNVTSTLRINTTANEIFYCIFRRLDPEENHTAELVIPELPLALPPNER
As to the kind of experiment: ELISA, coated cyno PD-L1-His. The method, boiled down: as §1

The target in test [9] is T1, human PD-L1-His (Sino Biological, Cat …). The experiment in a line: BLI (Gator), antibody on HFC probe, human PD-L1-His in solution. The method, boiled down:
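Antibody at 1 μg/ml in Q buffer immobilized on HFC probes, then dipped into human PD-L1-His serially diluted 4-fold from 4 μg/ml. Association and dissociation followed by biolayer interferometry; affinity fitted from the binding curves.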

The target in test [10] is T7, cynomolgus PD-L1-His (Sino Biological, …). The experiment in a line: BLI (Gator), cynomolgus PD-L1.

T1 sequence (Q9NZQ7 19-238): as the sequence (Q9NZQ7 other isoform, or with tags, fused parts or gaps C08H C08H limits assumed) above, with T33A, S34A, N62S, Q68R, R82Q, L173F, A185T, I192T, L215H counted along it
T5 sequence (D4AE25 entry or part of it R08H R08H limits assumed): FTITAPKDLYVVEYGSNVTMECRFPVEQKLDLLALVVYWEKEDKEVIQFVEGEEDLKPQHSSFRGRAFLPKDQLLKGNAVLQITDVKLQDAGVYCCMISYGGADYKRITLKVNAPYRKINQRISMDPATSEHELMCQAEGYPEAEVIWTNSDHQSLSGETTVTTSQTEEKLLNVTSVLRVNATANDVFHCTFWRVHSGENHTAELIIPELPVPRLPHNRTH
T6 sequence (Q9NZQ7 19-290 limits assumed): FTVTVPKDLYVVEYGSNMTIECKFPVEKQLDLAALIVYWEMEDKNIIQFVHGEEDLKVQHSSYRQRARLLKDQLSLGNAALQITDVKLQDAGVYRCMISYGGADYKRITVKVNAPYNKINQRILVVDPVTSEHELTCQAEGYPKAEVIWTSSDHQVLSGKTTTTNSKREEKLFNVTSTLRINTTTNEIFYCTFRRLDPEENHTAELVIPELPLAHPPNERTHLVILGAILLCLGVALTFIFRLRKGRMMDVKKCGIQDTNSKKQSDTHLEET

B1: 33E8 (antibody, human IgG1, V domains shown)
VH: QSLEESGGDLVKPGASLTLTCTASGFYFSSGYDMSWVRQAPGKGLEWIASIFTTSGSTWYANWAKGRFTISKTSSTTVTLQMTSLTDADTATYFCTKDGVGSFYMNLWGPGTLVTVSS
VL: LVMTQTPASVEVAVGGTVTIKCQASQTIGSNLAWYQQRPGQPPKLLIYKAFTLASGVSSRFKGSGSGTQFTLTISGVECADAATYYCQQGATRINIDNAFGGGTEVVVK
For B1, the EC50 (in general, the concentration giving half of the maximal effect) in test [1] stood at 0.0399 nM. In test [2], the binding result was “no binding”. For the same molecule, the binding result in test [3] is “no binding”. Moreover, the binding result in [4] is “no binding”. Further, in [5], the binding result was “no binding”. It took 1.19 nM to reach a half-maximal effect in test [6] (EC50). For the same molecule, in test [7], the “Internalization (%), FACS, 0.25 µg/ml, 2 h” value worked out at 20.9%; the “Internalization (%), FACS, 0.25 µg/ml, 4 h” value stood at 21.6%; the “Internalization (%), FACS, 0.5 µg/ml, 2 h” value turned out to be 22.8%; the “Internalization (%), FACS, 0.5 µg/ml, 4 h” value amounted to 25.8%. In test [7], the “Internalization (%), FACS, 1 µg/ml, 2 h” value was 20.4%; the “Internalization (%), FACS, 1 µg/ml, 4 h” value came out at 23.3%; the “Internalization (%), FACS, 2 µg/ml, 2 h” value came out at 29.6%; the “Internalization (%), FACS, 2 µg/ml, 4 h” value was determined as 30.2%. Further, a half-maximal effect in test [8] (EC50) was put at 0.0414 nM. Further, in test [9], the Kd (usually a measure of binding affinity in units of concentration) amounted to 1.16 nM; the koff – broadly, the first-order rate constant of dissociation – is 0.000418 s⁻¹; the kon (in general, the rate constant with which the complex forms) turned out to be 361000 M⁻¹ s⁻¹. For the same molecule, in [10], binding was put at a Kd of 0.93 nM, the koff is 0.000202 s⁻¹ and the kon turned out to be 218000 M⁻¹ s⁻¹.

B2: 32E2 (antibody, human IgG1, V domains shown)
VH: QEQLEESGGDLVKPEGSLTLTCTASGFSFSSSYYMSWVRQAPGMGLEWIASISGGVTDNAYYASWAKGRFTVSKTSSTTVTLQLTSLTAADTATYFCARDSSSGYFFLLWGPGTLVTVSS
VL: LVMTQTPSSVSAAVGGTVTINCQASQNIYSNLAWYQQKPGQRPKLLIFGASNLRSGVPSRFKGSGSGTEYTLTISDLECADAATYYCQEGYSIGNVDNPFGGGTEVVVK
As to B2, the EC50 in [1] was determined as 0.106 nM. The binding result in [2] was “no binding”. The binding result in [3] is listed as “no binding”. Further, in test [4], the binding result is listed as “no binding”. Further, the binding result in [5] is “no binding”. This molecule registered an EC50 in [6] of 18.5 nM. Besides, in [7], the “Internalization (%), FACS, 0.25 µg/ml, 2 h” value came to 2.2%; the “Internalization (%), FACS, 0.25 µg/ml, 4 h” value was -25.9%; the “Internalization (%), FACS, 0.5 µg/ml, 2 h” value was determined as 0.4%; the “Internalization (%), FACS, 0.5 µg/ml, 4 h” value worked out at 5.6%. Besides, in test [7], the “Internalization (%), FACS, 1 µg/ml, 2 h” value came out at 1.1%; the “Internalization (%), FACS, 1 µg/ml, 4 h” value was determined as 7.2%; the “Internalization (%), FACS, 2 µg/ml, 2 h” value is 2.4%; the “Internalization (%), FACS, 2 µg/ml, 4 h” value is 7.6%. For the same molecule, in test [8], it took 0.179 nM to reach a half-maximal effect (EC50). Besides, in [9], the Kd amounted to 0.31 nM, the koff came out at 0.000113 s⁻¹ and the kon stood at 371000 M⁻¹ s⁻¹. In test [10], this molecule returned a Kd of 0.53 nM, a koff of 7e-05 s⁻¹ and a kon of 133000 M⁻¹ s⁻¹.

B3: 33H7 (antibody, human IgG1, V domains shown)
VH: QEQLVESGGGLVQPEGSLTVTCTASGFDLSRYFYMSWVRQAPGKGLEWIASISTGSDITDYASWAKGRFTISKTSSTTVTLQMTTLTAADTAIYFCARWTSGGGGFGLWGPGTLVTVSS
VL: QVLTQTASPVSAAVGGTVTLNCQSSQSIYNNYLSWYQQRAGQPPKLLIYSTATLASGVPSRFKGSGSGTQFTLTISEIQCEDAATYYCQGYYSGYIWTFGGGTEVVVK
Turning to B3, the EC50 in test [1] is 0.0171 nM. For the same molecule, the binding result in test [2] is reported as “no binding”. In test [3], the binding result is reported as “no binding”. Moreover, in [4], the binding result is reported as “no binding”. In addition, the binding result in [5] is listed as “no binding”. In test [6], this molecule came in with an EC50 of 0.34 nM. In addition, in test [7], the “Internalization (%), FACS, 0.25 µg/ml, 2 h” value was 15.2%; the “Internalization (%), FACS, 0.25 µg/ml, 4 h” value amounted to 12.3%; the “Internalization (%), FACS, 0.5 µg/ml, 2 h” value amounted to 17%; the “Internalization (%), FACS, 0.5 µg/ml, 4 h” value stood at 14.2%. Also, in test [7], the “Internalization (%), FACS, 1 µg/ml, 2 h” value amounted to 14.4%; the “Internalization (%), FACS, 1 µg/ml, 4 h” value turned out to be 12.4%; the “Internalization (%), FACS, 2 µg/ml, 2 h” value was 17.8%; the “Internalization (%), FACS, 2 µg/ml, 4 h” value was determined as 12.6%. Further, the EC50 in test [8] was determined as 0.013 nM. In test [9], this molecule came in with a Kd of 0.61 nM, a koff of 0.000329 s⁻¹ and a kon of 536000 M⁻¹ s⁻¹. For the same molecule, in test [10], the Kd is 0.23 nM, the koff amounted to 8.1e-05 s⁻¹ and the kon worked out at 350000 M⁻¹ s⁻¹.
